Where no end group is shown, it is not given here. The star is where a group is joined. Dhc(Pam)2 = S-[2,3-bis(palmitoyl)oxy-(R)-propyl]-cysteine, CCCCCCCCCCCCCCCC(=O)OC[C@H](CSC[C@H](N)C(=O)*)OC(=O)CCCCCCCCCCCCCCC; PEGO = not defined here
How the values were obtained:
[1] = target: T1, human Toll-like receptor 2 (TLR2) (human, UniProt O60603 21-784); test: Eu TRF competition binding on SU.86.86 cells; competitor 90 nM compound 11
[2] = target: T1, human Toll-like receptor 2 (TLR2); test: Eu TRF competition binding on HEK-293/hTLR2 cells; competitor 90 nM compound 11
[3] = target: T1, human Toll-like receptor 2 (TLR2); test: Eu TRF competition binding; competitor compound 11
[4] = target: T1, human Toll-like receptor 2 (TLR2); test: cell-based or functional assay
[5] = target: T1, human Toll-like receptor 2 (TLR2); test: in cyto competition binding assay
[6] = target: human carbonic anhydrase 9 (CAIX) (human) (UniProt Q16790); test: in vivo fluorescence imaging of CAIX positive MDA-mb-231 tumour 24 h after injection; competitor unlabeled CAIX mAb
[7] = target: T1, human Toll-like receptor 2 (TLR2); test: Eu TRF saturation binding on Capan-I cells; non-specific binding with 1 µM Pam2CSK4
[8] = target: T1, human Toll-like receptor 2 (TLR2); test: Eu TRF saturation binding on HEK-293/hTLR2 cells
[9] = target: T1, human Toll-like receptor 2 (TLR2); test: Eu TRF saturation binding on SU.86.86 cells
[10] = target: T1, human Toll-like receptor 2 (TLR2); test: Eu TRF saturation binding on TLR2 expressing cells
[11] = target: T1, human Toll-like receptor 2 (TLR2); test: Eu TRF saturation binding on Capan-I cells
[12] = target: T1, human Toll-like receptor 2 (TLR2); test: Eu TRF saturation binding on HEK-293/hTLR2 cells; non-specific binding with 1 µM Pam2CSK4
[13] = target: T1, human Toll-like receptor 2 (TLR2); test: time-resolved fluorescence saturation binding assay
[14] = target: T1, human Toll-like receptor 2 (TLR2); test: Eu TRF saturation binding on SU.86.86 cells; non-specific binding with 1 µM Pam2CSK4
[15] = target: T1, human Toll-like receptor 2 (TLR2); test: in vivo fluorescence imaging of TLR2 expressing SU.86.86 xenografts 24 h post-injection; competitor 20-fold excess Pam2CSK4
[16] = target: T1, human Toll-like receptor 2 (TLR2); test: time-resolved fluorescence competitive binding assay

T1 sequence (O60603 21-784): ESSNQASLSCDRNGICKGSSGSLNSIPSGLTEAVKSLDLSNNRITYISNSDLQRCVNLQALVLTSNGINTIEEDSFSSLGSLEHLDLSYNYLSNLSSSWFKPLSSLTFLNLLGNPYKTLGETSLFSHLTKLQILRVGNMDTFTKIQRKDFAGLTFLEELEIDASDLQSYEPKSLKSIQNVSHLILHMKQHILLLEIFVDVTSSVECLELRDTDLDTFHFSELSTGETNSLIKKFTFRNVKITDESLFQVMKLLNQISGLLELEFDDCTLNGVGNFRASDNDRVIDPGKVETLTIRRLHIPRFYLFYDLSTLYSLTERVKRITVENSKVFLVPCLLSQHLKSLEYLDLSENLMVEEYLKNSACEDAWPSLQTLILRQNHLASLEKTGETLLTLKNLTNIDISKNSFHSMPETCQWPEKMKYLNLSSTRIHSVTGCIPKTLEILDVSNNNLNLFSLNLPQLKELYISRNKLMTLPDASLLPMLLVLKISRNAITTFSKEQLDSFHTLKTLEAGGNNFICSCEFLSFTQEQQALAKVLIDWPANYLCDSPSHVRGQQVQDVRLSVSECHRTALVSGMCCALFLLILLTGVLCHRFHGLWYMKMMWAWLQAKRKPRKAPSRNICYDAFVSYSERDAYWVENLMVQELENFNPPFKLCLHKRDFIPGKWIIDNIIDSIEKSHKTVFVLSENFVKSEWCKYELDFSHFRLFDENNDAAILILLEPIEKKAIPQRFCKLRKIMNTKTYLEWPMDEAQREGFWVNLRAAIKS

Molecule: Compound 10: Ac-PEGO-Cys(S-[2,3-bis(palmitoyl)oxy-(R)-propyl])-Gly-DSer-PEGO-NH2 (peptide)
- Ki [1]: 91 nM
- Ki [2]: 25 nM
- Ki [3]: < 100 nM
- fold of enhancement of luminescence at 1 µg/mL vs SAA at 10 µg/mL [4]: 5.2 fold
- fold of enhancement of luminescence vs SAA at 1 µg/mL [4]: 14 fold
- Ki [5]: 24 nM

Molecule: CA9Ab-680 (anti-human CAIX monoclonal antibody, Clone 303123, R&D systems, conjugated to VivoTag-S 680)
- fold decrease of probe fluorescence in the tumour after blocking with unlabeled CAIX mAb [6]: 1.7 times

Molecule: Compound 11: Eu-DTPA-PEGO-Cys(S-[2,3-bis(palmitoyl)oxy-(R)-propyl])-Gly-DSer-PEGO-NH2 (peptide)
- Kd [7]: 78 nM
- Bmax [8]: 114000 AFU
- Bmax [9]: 270000 AFU
- Kd [10]: < 100 nM
- Bmax [11]: 951000 AFU
- Kd [12]: 34 nM
- Kd [13]: 30 nM
- Kd [14]: 74 nM

Molecule: Compound 12: Mpr-PEGO-Cys(S-[2,3-bis(palmitoyl)oxy-(R)-propyl])-Gly-DSer-PEGO-NH2 (peptide)
- Ki [1]: 25 nM
- Ki [3]: < 100 nM

Molecule: Compound 13: IRDye800CW-Mpr-PEGO-Cys(S-[2,3-bis(palmitoyl)oxy-(R)-propyl])-Gly-DSer-PEGO-NH2 (peptide)
- Ki [1]: 67 nM
- Ki [2]: 11 nM
- unblocked/blocked tumor fluorescence (fold) [15]: 1.94 fold
- Ki [16]: 10 nM
- Ki [3]: < 100 nM

Molecule: SRFDEDDLE-NH2 (not fully specified (some residues, N-terminus))
- fold of enhancement of luminescence at 1 µg/mL vs SAA at 10 µg/mL [4]: 4.2 fold
- fold of enhancement of luminescence vs SAA at 1 µg/mL [4]: 11 fold

Molecule: {Ac-PEGO-Dhc(Pam)2}-GSQNLASLEE-NH2 (reading uncertain)
- fold of enhancement of luminescence at 1 µg/mL vs SAA at 10 µg/mL [4]: 4.8 fold
- fold of enhancement of luminescence vs SAA at 1 µg/mL [4]: 13 fold

Source: patent US20140161725A1 (H LEE MOFFITT CANCER CENTER AND RESEARCH INSTITUTE, published 2014)
